# Measured values reported in PMC2928392 (Pharmacogenetics and Genomics, 2009).
# B1: UDP-glucuronosyltransferase 2A1 (UGT2A1) (Homo sapiens) (protein)
# chain: GNVLIWPMEGSHWLNVKIIIDELIKKEHNVTVLVASGALFITPTSNPSLTFEIYKVPFGKERIEGVIKDFVLTWLENRPSPSTIWRFYQEMAKVIKDFHMVSQEICDGVLKNQQLMAKLKKSKFEVLVSDPVFPCGDIVALKLGIPFMYSLRFSPASTVEKHCGKVPYPPSYVPAVLSELTDQMSFTDRIRNFISYHLQDYMFETLWKSWDSYYSKALGGLLLCCPGWSAVADLGSLQPLLPGFKRFSRLSLHCSWDYRLPAGRPTTLCETMGKAEIWLIRTYWDFEFPRPYLPNFEFVGGLHCKPAKPLPKVLWRYKGKKPATLGNNTQLFDWIPQNDLLGHPKTKAFITHGGTNGIYEAIYHGVPMVGVPMFADQPDNIAHMKAKGAAVEVNLNTMTSVDLLSALRTVINEPSYKENAMRLSRIHHDQPVKPLDRAVFWIEFVMRHKGAKHLRVAAHDLTWFQYHSLDVIGFLLVCVTTAIFLVIQCCLFSCQKFGKIGKKKKRE
# B2: UDP-glucuronosyltransferase 2A2 (UGT2A2) (Homo sapiens) (protein)
# chain: MVSIRDFTMPKKFVQMLVFNLTLTEVVLSGNVLIWPTDGSHWLNIKIILEELIQRNHNVTVLASSATLFINSNPDSPVNFEVIPVSYKKSNIDSLIEHMIMLWIDHRPTPLTIWAFYKELGKLLDTFFQINIQLCDGVLKNPKLMARLQKGGFDVLVADPVTICGDLVALKLGIPFMYTLRFSPASTVERHCGKIPAPVSYVPAALSELTDQMTFGERIKNTISYSLQDYIFQSYWGEWNSYYSKILGRPTTLCETMGKAEIWLIRTYWDFEFPRPYLPNFEFVGGLHCKPAKPLPKEMEEFIQSSGKNGVVVFSLGSMVKNLTEEKANLIASALAQIPQKVLWRYKGKKPATLGNNTQLFDWIPQNDLLGHPKTKAFITHGGTNGIYEAIYHGVPMVGVPMFADQPDNIAHMKAKGAAVEVNLNTMTSVDLLSALRTVINEPSYKENAMRLSRIHHDQPVKPLDRAVFWIEFVMRHKGAKHLRVAAHDLTWFQYHSLDVIGFLLVCVTTAIFLVIQCCLFSCQKFGKIGKKKKRE
# Experiments:
# [1] = target: T1, UDP-glucuronosyltransferase 2A3 (UGT2A3) (Homo sapiens, UniProt Q6UWM9); test: glucuronidation rate at […], radiochemical HPLC; assay type: cell-based
# T1 sequence (Q6UWM9 24-527): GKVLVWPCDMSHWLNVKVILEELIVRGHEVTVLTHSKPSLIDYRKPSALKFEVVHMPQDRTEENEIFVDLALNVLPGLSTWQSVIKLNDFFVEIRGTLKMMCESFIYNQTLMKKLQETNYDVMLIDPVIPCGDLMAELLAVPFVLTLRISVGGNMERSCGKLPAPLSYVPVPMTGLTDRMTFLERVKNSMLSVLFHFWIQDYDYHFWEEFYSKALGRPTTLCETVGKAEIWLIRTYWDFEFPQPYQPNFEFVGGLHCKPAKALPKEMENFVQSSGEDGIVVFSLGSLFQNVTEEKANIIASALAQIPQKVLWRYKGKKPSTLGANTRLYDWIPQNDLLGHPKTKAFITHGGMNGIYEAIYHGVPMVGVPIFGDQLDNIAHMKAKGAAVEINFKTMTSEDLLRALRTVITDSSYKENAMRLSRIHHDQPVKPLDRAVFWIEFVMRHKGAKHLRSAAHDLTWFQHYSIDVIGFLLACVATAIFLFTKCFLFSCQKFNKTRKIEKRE
# [2] = substrate: O=[N+]([O-])c1ccc(O)cc1; test: glucuronidation kinetics; assay type: cell-based, Homo sapiens; conditions: UDP-glucuronic acid; MgCl2 ([…])
# [3] = substrate: O=C(O)[C@H]1O[C@H](OP(=O)(O)OP(=O)(O)OC[C@H]2O[C@@H](n3ccc(=O)[nH]c3=O)[C@H](O)[C@@H]2O)[C@H](O)[C@@H](O)[C@@H]1O; test: cells, lysate or membranes; conditions: MgCl2 ([…]) co-substrate
# [4] = substrate: Cc1cc(=O)oc2cc(O)ccc12; test: glucuronidation kinetics; assay type: cell-based, Homo sapiens; conditions: UDP-glucuronic acid; MgCl2 ([…])
# [5] = substrate: Oc1ccc(-c2ccccc2)cc1; test: glucuronidation kinetics; assay type: cell-based, Homo sapiens; conditions: UDP-glucuronic acid; MgCl2 ([…])
molecule,measurement,setting,value
"C[C@H](CCC(=O)O)[C@H]1CC[C@H]2[C@@H]3C[C@H](O)[C@@H]4C[C@H](O)CC[C@]4(C)[C@H]3CC[C@]12C [HDCA, hyodeoxycholic acid]","glucuronidation rate at 200 μM, radiochemical HPLC (4.9 pmol/min/mg)",[1],UGT2A3 exhibited glucuronidating activity only towards HDCA
B1,Km,[2],303 µM
same,Vmax,[2],141 ± 5 pmol/min/mg
same,Km,[3],39.5 µM
same,Vmax,[3],292 ± 12 pmol/min/mg
B2,Km,[4],2998 µM
same,Vmax,[4],39 ± 0.9 pmol/min/mg
same,Km,[5],245 µM
same,Vmax,[5],124 ± 2 pmol/min/mg
same,Km,[2],4469 µM
same,Vmax,[2],69 ± 3 pmol/min/mg
same,Km,[3],55.1 µM
same,Vmax,[3],91.4 ± 3 pmol/min/mg
